Consider 42 variants from the Human Domainome abundance scans (Beltran et al. 2025).

B1: KAT8 regulatory NSL complex subunit 2, residues 28 to 91; numbered along this chain, Q9H9L4 (parent)
chain: CAFTHRPCSHPRLEGQEFCIKHILEDKNAPFKQCSYISTKNGKRCPNAAPKPEKKDGVSFCAEH

± gives the uncertainty stated by the source.

In the series the parent is B1. The series can be described thus: abundance fitness (aPCA) (normalised: wild type 0, dead -1); higher = more abundant; growth selection in yeast, the domain comes from the species named. The following applies: Homo sapiens.
With CAFTHRPCSHPRLEGQEFCIKHILEDKNAPFKQCSYISTKNGKRCPNAAVKPEKKDGVSFCAEH, the abundance fitness is -0.204 ± 0.07. As for CAFTHRPCSHPRLEGQEFCIKHILEDKNAPFKQCSYISTKNGKRCPNAARKPEKKDGVSFCAEH, the figure is -0.106 ± 0.069. For CAFTHRPCSHPRLEGQEFCIKHILEDKNAPFKQCSYISTKNGKRCPNAAYKPEKKDGVSFCAEH, the abundance fitness is -0.249 ± 0.079. Take CAFTHRPCSHPRLEGQEFCIKHILEDKNAPFKQCSYISTKNGKRCPNAAQKPEKKDGVSFCAEH: the abundance fitness was -0.265 ± 0.2. In the case of CAFTHRPCSHPRLEGQEFCIKHILEDKNAPFKQCSYISTKNGKRCPNAASKPEKKDGVSFCAEH it was -0.104 ± 0.054; in that of CAFTHRPCSHPRLEGQEFCIKHILEDKNAPFKQCSYISTKNGKRCPNAAWKPEKKDGVSFCAEH, -0.287 ± 0.098; in that of CAFTHRPCSHPRLEGQEFCIKHILEDKNAPFKQCSYISTKNGKRCPNAANKPEKKDGVSFCAEH, -0.126 ± 0.072. On to CAFTHRPCSHPRLEGQEFCIKHILEDKNAPFKQCSYISTKNGKRCPNAAPPPEKKDGVSFCAEH, for which the abundance fitness was -0.109 ± 0.08.

Turning to CAFTHRPCSHPRLEGQEFCIKHILEDKNAPFKQCSYISTKNGKRCPNAAPSPEKKDGVSFCAEH, the abundance fitness was -0.105 ± 0.064. In the case of CAFTHRPCSHPRLEGQEFCIKHILEDKNAPFKQCSYISTKNGKRCPNAAPMPEKKDGVSFCAEH, the abundance fitness is -0.099 ± 0.11. Consider CAFTHRPCSHPRLEGQEFCIKHILEDKNAPFKQCSYISTKNGKRCPNAAPGPEKKDGVSFCAEH, for which the abundance fitness is -0.033 ± 0.088. As to CAFTHRPCSHPRLEGQEFCIKHILEDKNAPFKQCSYISTKNGKRCPNAAPVPEKKDGVSFCAEH, the abundance fitness is -0.035 ± 0.085.

With CAFTHRPCSHPRLEGQEFCIKHILEDKNAPFKQCSYISTKNGKRCPNAAPTPEKKDGVSFCAEH, the abundance fitness was -0.112 ± 0.073. On to CAFTHRPCSHPRLEGQEFCIKHILEDKNAPFKQCSYISTKNGKRCPNAAPCPEKKDGVSFCAEH, for which the abundance fitness was -0.072 ± 0.092. In the case of CAFTHRPCSHPRLEGQEFCIKHILEDKNAPFKQCSYISTKNGKRCPNAAPRPEKKDGVSFCAEH it was -0.087 ± 0.075; in that of CAFTHRPCSHPRLEGQEFCIKHILEDKNAPFKQCSYISTKNGKRCPNAAPQPEKKDGVSFCAEH, -0.217 ± 0.37. On to CAFTHRPCSHPRLEGQEFCIKHILEDKNAPFKQCSYISTKNGKRCPNAAPAPEKKDGVSFCAEH, for which the abundance fitness was -0.03 ± 0.071.

Turning to CAFTHRPCSHPRLEGQEFCIKHILEDKNAPFKQCSYISTKNGKRCPNAAPDPEKKDGVSFCAEH, the abundance fitness is -0.05 ± 0.12. With CAFTHRPCSHPRLEGQEFCIKHILEDKNAPFKQCSYISTKNGKRCPNAAPYPEKKDGVSFCAEH, the abundance fitness was -0.327 ± 0.094. CAFTHRPCSHPRLEGQEFCIKHILEDKNAPFKQCSYISTKNGKRCPNAAPLPEKKDGVSFCAEH: the abundance fitness was -0.101 ± 0.052. For the variant CAFTHRPCSHPRLEGQEFCIKHILEDKNAPFKQCSYISTKNGKRCPNAAPEPEKKDGVSFCAEH, the abundance fitness is -0.064 ± 0.13. For the variant CAFTHRPCSHPRLEGQEFCIKHILEDKNAPFKQCSYISTKNGKRCPNAAPNPEKKDGVSFCAEH, the abundance fitness is -0.195 ± 0.12. As for CAFTHRPCSHPRLEGQEFCIKHILEDKNAPFKQCSYISTKNGKRCPNAAPIPEKKDGVSFCAEH, the figure is -0.041 ± 0.088; as for CAFTHRPCSHPRLEGQEFCIKHILEDKNAPFKQCSYISTKNGKRCPNAAPHPEKKDGVSFCAEH, -0.166 ± 0.091. Turning to CAFTHRPCSHPRLEGQEFCIKHILEDKNAPFKQCSYISTKNGKRCPNAAPFPEKKDGVSFCAEH, the abundance fitness was -0.21 ± 0.068. For CAFTHRPCSHPRLEGQEFCIKHILEDKNAPFKQCSYISTKNGKRCPNAAPKKEKKDGVSFCAEH, the abundance fitness is -0.136 ± 0.069. CAFTHRPCSHPRLEGQEFCIKHILEDKNAPFKQCSYISTKNGKRCPNAAPKMEKKDGVSFCAEH: the abundance fitness is -0.024 ± 0.07. As for CAFTHRPCSHPRLEGQEFCIKHILEDKNAPFKQCSYISTKNGKRCPNAAPKYEKKDGVSFCAEH, the figure is -0.29 ± 0.13.

Turning to CAFTHRPCSHPRLEGQEFCIKHILEDKNAPFKQCSYISTKNGKRCPNAAPKHEKKDGVSFCAEH, the abundance fitness is -0.133 ± 0.07. As to CAFTHRPCSHPRLEGQEFCIKHILEDKNAPFKQCSYISTKNGKRCPNAAPKAEKKDGVSFCAEH, the abundance fitness was -0.072 ± 0.046. Turning to CAFTHRPCSHPRLEGQEFCIKHILEDKNAPFKQCSYISTKNGKRCPNAAPKWEKKDGVSFCAEH, the abundance fitness is -0.053 ± 0.063. Regarding CAFTHRPCSHPRLEGQEFCIKHILEDKNAPFKQCSYISTKNGKRCPNAAPKEEKKDGVSFCAEH, the abundance fitness is -0.066 ± 0.058. With CAFTHRPCSHPRLEGQEFCIKHILEDKNAPFKQCSYISTKNGKRCPNAAPKDEKKDGVSFCAEH, the abundance fitness was -0.077 ± 0.084.

For the variant CAFTHRPCSHPRLEGQEFCIKHILEDKNAPFKQCSYISTKNGKRCPNAAPKGEKKDGVSFCAEH, the abundance fitness was -0.068 ± 0.054. CAFTHRPCSHPRLEGQEFCIKHILEDKNAPFKQCSYISTKNGKRCPNAAPKVEKKDGVSFCAEH: the abundance fitness was -0.083 ± 0.053.

CAFTHRPCSHPRLEGQEFCIKHILEDKNAPFKQCSYISTKNGKRCPNAAPKCEKKDGVSFCAEH: the abundance fitness is -0.188 ± 0.086. For CAFTHRPCSHPRLEGQEFCIKHILEDKNAPFKQCSYISTKNGKRCPNAAPKFEKKDGVSFCAEH, the abundance fitness was -0.01 ± 0.12. CAFTHRPCSHPRLEGQEFCIKHILEDKNAPFKQCSYISTKNGKRCPNAAPKLEKKDGVSFCAEH: the abundance fitness is -0.106 ± 0.046.

Regarding CAFTHRPCSHPRLEGQEFCIKHILEDKNAPFKQCSYISTKNGKRCPNAAPKSEKKDGVSFCAEH, the abundance fitness is -0.082 ± 0.052. As for CAFTHRPCSHPRLEGQEFCIKHILEDKNAPFKQCSYISTKNGKRCPNAAPKIEKKDGVSFCAEH, the figure is -0.136 ± 0.14. As for CAFTHRPCSHPRLEGQEFCIKHILEDKNAPFKQCSYISTKNGKRCPNAAPKREKKDGVSFCAEH, the figure is -0.144 ± 0.049; as for CAFTHRPCSHPRLEGQEFCIKHILEDKNAPFKQCSYISTKNGKRCPNAAPKQEKKDGVSFCAEH, -0.061 ± 0.078.
